Key:
[1] = molecular target: RadA-ct (Pyrococcus furiosus); experiment: ITC
[2] = molecular target: HumRadA33 (Pyrococcus furiosus, UniProt O74036 108-349, S167K | V168A | I169M | W170Y | N175G | I182L | R183L | D192S | P193G | D194S | …); experiment: ITC

Ac-NLGTFMRADEYLKKRA-NH2 [RadA oligomerisation peptide]
Kd [1]: 0.6 µM | Kd [2]: 13 µM

Source: paper PMC5117717 (2016)
